These results are taken from patent publication US20140220040A1 (ARCA BIOPHARMA, published 2014).

T1: Human LRP6-Fc (R&D Systems), recombinant human LRP6 containing the complete extracellular domain (human, UniProt O75581 20-1370)
T1 construct: Bought protein; also called hLRP6; Fc-antigen; not shown: Fc part of the bought fusion protein
T1 sequence: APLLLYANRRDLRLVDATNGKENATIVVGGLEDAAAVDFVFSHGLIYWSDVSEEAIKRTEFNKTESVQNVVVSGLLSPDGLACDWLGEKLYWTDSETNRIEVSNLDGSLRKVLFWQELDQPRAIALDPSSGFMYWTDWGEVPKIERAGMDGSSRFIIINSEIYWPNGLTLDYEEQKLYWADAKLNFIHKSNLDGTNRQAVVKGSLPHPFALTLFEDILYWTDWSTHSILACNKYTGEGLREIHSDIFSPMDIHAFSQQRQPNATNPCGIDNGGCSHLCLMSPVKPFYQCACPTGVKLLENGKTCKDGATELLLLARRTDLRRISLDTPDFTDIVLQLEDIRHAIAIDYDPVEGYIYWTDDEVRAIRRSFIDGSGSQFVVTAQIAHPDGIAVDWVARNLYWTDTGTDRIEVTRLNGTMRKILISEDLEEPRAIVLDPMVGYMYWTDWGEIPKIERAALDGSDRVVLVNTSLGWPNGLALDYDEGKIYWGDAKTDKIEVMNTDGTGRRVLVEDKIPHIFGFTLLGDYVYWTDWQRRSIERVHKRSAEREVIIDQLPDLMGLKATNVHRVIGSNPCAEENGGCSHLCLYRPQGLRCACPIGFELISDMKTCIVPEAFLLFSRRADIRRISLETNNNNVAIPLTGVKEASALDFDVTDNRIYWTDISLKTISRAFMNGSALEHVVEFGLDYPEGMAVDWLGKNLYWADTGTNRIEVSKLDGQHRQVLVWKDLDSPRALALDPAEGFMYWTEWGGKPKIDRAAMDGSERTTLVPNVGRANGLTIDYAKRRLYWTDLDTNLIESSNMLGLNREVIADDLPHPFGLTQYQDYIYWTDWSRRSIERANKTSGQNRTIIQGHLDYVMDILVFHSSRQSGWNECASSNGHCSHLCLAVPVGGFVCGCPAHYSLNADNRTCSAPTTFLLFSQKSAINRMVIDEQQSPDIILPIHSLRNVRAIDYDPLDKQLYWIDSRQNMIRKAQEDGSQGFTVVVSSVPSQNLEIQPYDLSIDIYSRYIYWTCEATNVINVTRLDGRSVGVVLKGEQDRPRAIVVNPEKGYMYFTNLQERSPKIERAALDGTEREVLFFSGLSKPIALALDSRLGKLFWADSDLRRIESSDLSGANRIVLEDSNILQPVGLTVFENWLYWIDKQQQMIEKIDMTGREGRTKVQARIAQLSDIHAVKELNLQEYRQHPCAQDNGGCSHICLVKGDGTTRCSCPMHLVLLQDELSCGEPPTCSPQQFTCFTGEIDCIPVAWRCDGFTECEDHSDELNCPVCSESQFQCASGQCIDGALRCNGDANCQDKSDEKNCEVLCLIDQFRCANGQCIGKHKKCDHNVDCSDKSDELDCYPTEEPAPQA

B1: anti-LRP6 monoclonal antibody 413.1 (antibody, V domains shown)
VH: EIQLQQSGPELVKPGASVKVSCKASGYAFTSYNMYWVKQSHGKGLEWIGYIDPYNGGTDSNQNFKGKATLTVDKSSSTAFMHLNSLTSEDSAVYYCARGGMGLRRDHFDYWGQGTSLTVSS
VL: QIVLTQSPAIMSASPGEKVTISCSANSSVRYMFWYQQKPGSFPKPWTYRTSNLASGVPARFSGSGSGTSYSLTISSMEAEDVATYYCQQYHSYPWTFGGGTKLEI
notes: Murine hybridoma mAb, protein G purified; also called VH5/VL5
B2: anti-LRP6 monoclonal antibody 537.2 (antibody, V domains shown)
VH: DVQLQESGPGLVKPSQSLSLTCSVTGYSITSGYYWNWIRQFPGDKLEWMGHINYDGRDNYNPSLKNRISITRDTSKNQFFLKLNSVTTEDTATYYCAREFGNFPYYFDYWGQGTTLTVSS
VL: QIVLTQSPAIMSASPGEKVTISCSAYSSVRFMFWYQQKPGSSPKPLIYRTSNLASGVSARFSGSGSGTSYSLTISSMEAEDAATYYCQQYHSYPWTFGGGTKLEI
notes: Murine hybridoma mAb, protein G purified; also called VH8/VL8
B3: anti-LRP6 monoclonal antibody 856.6 (antibody, V domains shown)
VH: QVQLQQSGPELVKPGASVRISCKASGYTFTTYYIHWLKQRPGQGLEWIGWIFPGNVNTKYNAKFKGKATLTADKSSSTAYMQLSSLTSEDSAVYFCAREGLQYYFDYWGQGTTLTVSS
VL: QIVLTQSPAIMSASPGEKVTISCSANSSVRFMFWYQQKPGSSPKPLIYRTSNLASGVPARFSGSGSGTSYSLTISSMEAEDAATYYCQQYHSYPWTFGGGTKLEI
notes: Murine hybridoma mAb, protein G purified; also called VH11/VL11
B4: anti-LRP6 monoclonal antibody 421.1 (antibody, V domains shown)
VH: QVQLQQSGPELVKPGASVRISCKASGYTFTTYYIHWLKQRPGQGLEWIGWIFPGNVNTKYNAKFKGKATLTADKSSSTAYMQLSSLTSEDSAVYFCAREELQYYFDYWGQGSTLTVSS
VL: QIVLTQSPAIMSASPGEKVTISCSANSSVRFMFWYQQKPGSSPKPLIYRTSNLASGVPARFSGCGSGTSYSLTISSMEAEDAATYYCQQYHSYPWTFGGGTKLEI
notes: Murine hybridoma mAb, protein G purified; also called VH6/VL6
B5: anti-LRP6 monoclonal antibody 620.1 (antibody, V domains shown)
VH: EIQLQQSGPELVKPGASVKVSCKASGYAFTSYNMYWVKQSHGKSLEWIGYIDPYNGGTNYNQKFKGKATLTVDKSSSTAYMHLNSLTSEDSAVYYCARGGMGLRRDYFDFWGQGTTLTVSS
VL: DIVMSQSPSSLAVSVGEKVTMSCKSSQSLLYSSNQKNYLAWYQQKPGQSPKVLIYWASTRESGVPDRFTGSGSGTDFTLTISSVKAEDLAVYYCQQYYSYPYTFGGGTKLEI
notes: Murine hybridoma mAb, protein G purified; also called VH10/VL10
B6: anti-LRP6 monoclonal antibody 1253.12 (antibody, V domains shown)
VH: QVQLQQSGPELVMPGASVRISCKASGYTFTNYYLHWVKQRPGQGLEWIGWIYPGNVNTKYNEKFKGKASLTADKSSSTAYMQLSSLTSEDSAVYFCAREGLQYYFDYWAQGTTLTVSS
VL: QIVLTQSPAIMSASPGEKVTISCSANSSVRYMFWYQQKPGSFPKPWIYRTSNLASGVPARFSGSGSGTSYSLTISSMEAEDVATYYCQQYHSYPWTFGGGTKLEI
notes: Murine hybridoma mAb, protein G purified; also called VH18/VL18
B7: anti-LRP6 monoclonal antibody 931.1 (antibody, V domains shown)
VH: DVNLVESGGGLVKLGGSLKLSCAASGFTFSSFYMSWVRQTPEKRLDLVATINTNGGSTYYSDTVKGRFTISRDNAKNTLYLQMNSLKSEDTALFYCVRQPYYGGTMDYWGQGTSVTVSS
VL: DIVLTQSPATLSVTPGDRVSLSCRASQSINNNLHWYQQKSHESPRLLIKYASQSISGIPSRFSGSGSGTDFTLSINSVETEDFGMYFCQQTNNWPLTFGAGTKLEL
notes: Murine hybridoma mAb, protein G purified; also called VH13/VL13
B8: anti-LRP6 monoclonal antibody 498.3 (antibody, V domains shown)
VH: DVKLVESGGGLVRLGGSLKLSCAASGFTFSTYYMSWVRQTPEKRLELVATINTNGGSTYYPDTLKGRFTISRDNAKNTLYLQMSSLRSEDTALYYCARQRNYGVAVDSWGQGTSVTVSS
VL: DIVLTQSPATLSVTPGDSVSLSCRASQSISNNLHWYQQKSHESPRLLIKYASQSISGIPSRFSGSGSGTDFTLSINSVETEDFGMYFCQQTNNWPLTFGAGTKLER
notes: Murine hybridoma mAb, protein G purified; also called VH7/VL7
B9: anti-LRP6 monoclonal antibody 240.8 (antibody, V domains shown)
VH: DVKLVESGGGLVKLGGSLKLSCAASGFTFSSYYMSWVRQTPEKRLELVAAINSNGGSTYYADTMKGRFTISRDNAKNTLYLQMISLKSEDTAFYYCASELAGYGTPFAYWGHGTLVTVSA
VL: DIVLTQFPATLSVTPGDSVSLSCRASQSISSNLHWYQQTSHESPRLLIKYASQSISGIPSRFSGTGSGTDFTLSINSVETEDFGMYFCQQSNTWPLTFGAGTKLEL
notes: Murine hybridoma mAb, protein G purified; also called VH4/VL4
B10: anti-LRP6 monoclonal antibody 213.7 (antibody, V domains shown)
VH: DVKLVESGGGLVKVGGSLKLSCAASGFTFSSYYMSWVRQTPEKRLELVAVINTNGGSTYYSDTVKGRFTISRDNAKNTLYLQMSSLKSEDTALYYCSRQPYYGNPFDYWGQGTTLTVSS
VL: DIVLTQSPATLSVTPGDSVSLSCRASQSISNNLHWYQQKSHESPRLLIKYVSQSISGIPSRFSGSGSGTDFTLSINSVETEDFGMYFCQQSNNWPLTFGAGTKLEL
notes: Murine hybridoma mAb, protein G purified; also called VH3/VL3
B11: anti-LRP6 monoclonal antibody 923.3 (antibody, V domains shown)
VH: DVKLVESGGGLVKVGGSLKLSCAASGFTFSSYYMSWVRQTPEKRLELVAAININGGSTYYPDTVKGRFTISRDNAKNTLYLQMSSLKSEDTAFYYCASELAGYGTPFAYWGQGTLVTVSA
VL: DIVLTQSPATLSVTPGDSVSLSCRASQSISNNLHWYQQKSHESPRLLIKYASQSISGIPSRFSGSGSGTDFTLSINSVETEDFGMYFCQQSNNWPLTFGAGTKLEL
notes: Murine hybridoma mAb, protein G purified; also called VH12/VL12
B12: anti-LRP6 monoclonal antibody 606.4 (antibody, V domains shown)
VH: DVKLVESGGGLVKVGGSLKLSCAASGFTFSSYYMSWVRQTPEKRLELVAVINSNGGSTYYSETVKGRFTISRDNAKNTLYLQMSSLKSEDTALYYCSRQPYYGNPFDYWGQGTTLTVSS
VL: DIVLTQSPATLSVTPGDSVSLSCRASQSISNNLHWYQQKSHESPRLLIKYVSQSISGIPSRFSGSGSGTDFTLSINSVETEDFGMYFCQQSNNWPLTFGAGTKLEL
notes: Murine hybridoma mAb, protein G purified; also called VH9/VL9
B13: anti-LRP6 monoclonal antibody 77.2 (antibody, V domains shown)
VH: QVQLQQSGAELAKPGASVKMSCKASGYTFTSYWMHWVKQRPGQGLEWIGYINPSTGYTEYNQNFRDKATLTADKSSSTANMQLSSLTSEDSAVYYCARTAQYYGSPRGYYAMDSWGQGTSVTVSS
VL: DIVMTQAAFSNPVTLGTSASISCRSSKSLLHSNGITYLCWFLQKPGQSPQLLIYLMSNLASGVPDRFSSSGSGTDFTLRISRVEAEDVGVYFCAQNLDLPWTFGGGTKLEI
notes: Murine hybridoma mAb, protein G purified; also called mAb 77.2; VH1/VL1
B14: anti-LRP6 monoclonal antibody 1281.1 (antibody, V domains shown)
VH: QVQLQQSGAELAKPGASVKISCKASGYTFTSYWMHWVKQRPGQGLEWIGYINPNTGYSEYNQKFRDKATLTANKSSSTANMQLSSLTSDDSAVYYCARTAQYYGSPRGYYAMDSWGQGTSVTVSS
VL: DIVMTQAAFSNPVTLGTSASISCRSSKSLLHSNGITYLCWFLQKPGQSPQLLIYQMSNLASGVPDRFSSSGSGTDFTLRISRVEAEDVGVYFCAQNLDLPWTFGGGTKLEI
notes: Murine hybridoma mAb, protein G purified; also called VH19/VL19

For this assay, the target named is T1, Human LRP6-Fc (R&D Systems), …. Nature of the assay: SPR (BIAcore), mAb captured on anti-mouse chip, Fc-antigen injected, 1:1 model. As to the method: Kinetic rate constants (kₐ and kd) were determined using surface plasmon resonance, and affinities (KD) were then calculated from the rate constants (kd/kₐ). Surface plasmon resonance was carried out on a BIAcore system (Biacore International AB, Uppsala, Sweden). Each murine anti-LRP6 mAb sample was diluted 100 fold and captured onto an anti-mouse sensor chip surface. The running buffer contained 10 mM HEPES, 150 mM NaCl, 0.005% Tween-20 and 0.1 mg/ml BSA. Following the capturing step, the Fc-antigen was injected at 45 nM as the highest concentration in a 3-fold dilution series. The association and dissociation phases were monitored for 8 and 60 minutes, respectively. The antigen response data were fit into a 1:1 interaction model.
As for B1, the Kd is 18 nM, the koff amounted to 8.47e-05 s⁻¹ and the kon was determined as 4700 M⁻¹ s⁻¹.
As to B2, the Kd amounted to 0.9 nM, the koff was 3.15e-05 s⁻¹ and the kon is 35200 M⁻¹ s⁻¹.
Turning to B3, the Kd is 0.95 nM, the koff was 4.5e-05 s⁻¹ and the kon worked out at 47400 M⁻¹ s⁻¹.
As to B4, the Kd came out at 3.2 nM, the koff was 0.000114 s⁻¹ and the on-rate (kon) was 35400 M⁻¹ s⁻¹.
In the same order, the values of B5 are 1.73 nM, 7.7e-05 s⁻¹ and 44600 M⁻¹ s⁻¹.
The like results for B6 were, in that order, 2.15 nM, 7.3e-05 s⁻¹ and 34000 M⁻¹ s⁻¹.
In the same order, the values of B7 are 1.12 nM, 6.3e-05 s⁻¹ and 56300 M⁻¹ s⁻¹.
For B8, the Kd turned out to be 0.98 nM, the koff was determined as 5e-05 s⁻¹ and the kon was 50500 M⁻¹ s⁻¹.
In the same order, the values of B9 are 6.55 nM, 4e-05 s⁻¹ and 6110 M⁻¹ s⁻¹.
B10: the Kd was 1.72 nM, the koff is 9.6e-05 s⁻¹ and the kon came to 55600 M⁻¹ s⁻¹.
With B11, the Kd was 2.33 nM, the koff is 7.4e-05 s⁻¹ and the kon is 31600 M⁻¹ s⁻¹.
The like results for B12 were, in that order, 1.08 nM, 5.7e-05 s⁻¹ and 53200 M⁻¹ s⁻¹.
As for B13, the Kd is 0.55 nM, the off-rate (koff) is 3.5e-05 s⁻¹ and the kon worked out at 63200 M⁻¹ s⁻¹.
Take B14: the Kd amounted to 1.83 nM, the koff was 8.3e-05 s⁻¹ and the kon worked out at 45500 M⁻¹ s⁻¹.
